B1: ImpFad2: Impatiens balsamina fatty acid modifying enzyme associated with conjugated double bond formation, SEQ ID NO:2, cDNA SEQ ID NO:1 (protein, listed as Impatiens balsamina)
chain: MGEVGPTNRTKTKLDKQQESENRVPHEPPPFTLSDLKKAIPPHCFERSLVKSFYHVIHDIIILSFFYYVAANYIPMLPQNLRYVAWPIYWAIQGCVQLGILVLGHECGHHAFSDYQWVDDMVGFVLHSSQLIPYFSWKHSHRRHHSNTASIERDEVYPPAYKNDLPWFAKYLRNPVGRFLMIFGALLFGWPSYLLFNANGRLYDRFASHYDPQSPIFNNRERLQVIASDVGLVFAYFVLYKIALAKGFVWLICVYGVPYVILNGLIVLITFLQHTHPNLPRYDLSEWDWLRGALSTVDRDYGMLNKVFHNVTDTHLVHHLFTTMPHYRAKEATEVIKPILGDYYKFDDTPFLKALWKDMGKCIYVESDVPGKNKGVYWYNNDI
B2: MomFad2: Momordica charantia fatty acid modifying enzyme associated with conjugated double bond formation, SEQ ID NO:4, cDNA SEQ ID NO:3 (protein, listed as Momordica charantia)
chain: MGGRGAIGVLRNGGGPKKKMGPGQGLGPGERITHARPPFSISQIKKAIPPHCFQRSLRRSFSYLLSDIALVSAFYYVADTYFHRLPHPLLHYLAWPVYWFCQGAVLTGMWGIAHDCGHHAFSDYQLVDDVVGFLIHSLVFVPYFSFKISHRRHHSNTSSVDRDEVFVPKPKAKMPWYFKYLTNPPARVFIIFITLTLGWPMYLTFNISGRYYGRFTSHFDPNSPIFSPKERVLVHISNAGLVATGYLLYRIAMAKGVGWLIRLYGVPLIVLNACVVLITALQHTHPSFPYYDSTEWDWLRGNLVTVDRDYGPIMNRVFHHITDTHVVHHLFPSMPHYNGKEATVAAKRILGEYYQFDGTPIWKAAWREFRECVYVEPDEDDGATSGSSSKGVFWYHNKL

What was measured:
soybean embryos = experiment: Fatty acid composition of transgenic soybean somatic embryos (GC, GC-MS); type: cell-based; settings: for 16:0 / 18:0 / 18:1 / 18:2 / 18:3 / α-Parinaric / Eleostearic / Other: single soybean embryo; for 16:0 / 18:0 / 18:1 / 18:2 / 18:3 / α-Parinaric: % of total oil weight; for Eleostearic: includes cis-trans isomers of α-eleostearic acid (<1.0 wt %); for Other: primarily 20:0, 20:1, 22:0, and 22:1
Protocol: Gene fusions of the Impatiens balsamina or Momordica charantia cDNAs with the conglycinin promoter and phaseolin termination sequences in vector pKS67 were introduced into soybean embryos using the particle bombardment method of transformation. To induce somatic embryos, cotyledons, 3–5 mm in length dissected from surface sterilized, immature seeds of a soybean cultivar A2872 or JACK-910 were cultured in the light or dark at 26° C. on an appropriate agar medium for 6–10 weeks. Somatic embryos that produce secondary embryos were then excised and placed into a suitable liquid medium. After repeated selection for clusters of somatic embryos that multiplied as early, globular staged embryos, the suspensions were maintained as described below.
Soybean embryogenic suspension cultures were then transformed with the vector pKS67 containing the Impatiens or Momordica cDNA for fatty acid modifying enzymes associated with conjugated double synthesis by the method of particle gun bombardment (Klein et al. (1987) Nature (London) 327:70, U.S. Pat. No. 4,945,050). A DuPont Biolistic™ PDS1000/HE instrument (helium retrofit) was used for these transformations.
Five to seven days post bombardment, the liquid media was exchanged with fresh media, and eleven to twelve days post bombardment with fresh media containing […] hygromycin. This selective media was refreshed weekly. Seven to eight weeks post bombardment, green, transformed tissue was observed growing from untransformed, necrotic embryogenic clusters. Isolated green tissue was removed and inoculated into individual flasks to generate new, clonally propagated, transformed embryogenic suspension cultures. Each new line was treated as an independent transformation event. These suspensions were then subcultured and maintained as clusters of immature embryos.
Transgenic soybean embryos selected and maintained in this manner were analyzed for eleostearic acid and parinaric acid content using methods described in Example 4 (Table 1). Individual embryos expressing either the Impatiens or Momordica fatty acid modifying enzyme for conjugated double bond synthesis were homogenized in 1% (w/v) sodium methoxide in methanol. Fatty acid methyl esters resulting from this transesterification step were analyzed by both GC and GC-MS as described in Example 4. Methyl esters of eleostearic and parinaric acids were identified in transgenic soybean extracts by comparison of retention times and mass spectra with those of fatty acid methyl esters prepared from seeds of Impatiens balsamina and Momordica charantia. […] In soybean embryos expressing the Momordica enzyme, eleostearic acid was detected principally as α-eleostearic acid with lesser amounts of at least two other cis-trans isomers of eleostearic acid. […]

[1] = system: Tobacco (Nicotiana tabacum L. cv Xanthi) callus; experiment: Fatty acid analysis (GC, GC-MS) of transgenic tobacco callus expressing the cDNA; type: cell-based; settings: CaMV 35S promoter
Text: The cDNAs encoding fatty acid modifying enzymes associated with conjugated double bond synthesis in seeds of Impatiens balsamina and Momordica charantia were introduced into a plant expression vector designated pML63. Vector pML63 contains the uidA gene (which encodes the GUS enzyme) operably linked to the CaMV35S promoter and 3′ NOS sequence. pML63 is modified from pMH40 to produce a minimal 3′ NOS terminator fragment. pMH 40 is described in WO 98/16650 which was published on Apr. 23, 1998, the disclosure of which are hereby incorporated by reference. Using standard techniques familiar to those skilled in the art, the 770 base pair terminator sequence contained in pMH40 was replaced with a new 3′ NOS terminator sequence comprising nucleotides 1277 to 1556 of the sequence published by Depicker et al. (1982, J. Appl. Genet. 1:561–574). A chimeric gene was constructed comprising cDNAs encoding fatty acid modifying enzymes associated with conjugated double bond synthesis in seeds of Impatiens balsamina and Momordica charantia in sense orientation with respect to the cauliflower mosaic virus 35S promoter that is located 5′ to the cDNA fragment and termination sequences from the nopaline synthase (NOS) that are located 3′ to the cDNA fragment. The cDNAs for the Impatiens polypeptide was introduced in the NcoI and EcoRI sites of the vector pML63. The cDNA for the Momordica polypeptide was introduced into the NcoI and SmaI sites of the vector pML63. The NcoI and EcoRI sites flanking the Impatiens cDNA were generated by PCR amplification of the cDNAs using oligonucleotide primers that contained these restriction sites (SEQ ID NO:7 and SEQ ID NO:8, for the sense and antisense oligonucleotides, respectively). PCR amplification was conducted using the Pfu DNA polymerase. The NcoI site flanking the 5′ end of the Momordica cDNA was generated by PCR amplification in a similar manner (SEQ ID NO:9 and SEQ ID NO:10). The 3′ end of the PCR-generated Momordica cDNA was blunt-ended which allowed for cloning into the SmaI site of the vector pML63. The resulting fusions of the cauliflower mosaic virus 35S promoter with the cDNAs encoding fatty acid modifying enzymes associated with conjugated double bond synthesis in seeds of Impatiens balsamina or Momordica charantia and NOS termination sequences were released from the vector pML63 by digestion with XbaI. The resulting XbaI fragment was ligated into the corresponding site of the binary vector pZS199 The vector pZS199 contains the following elements: (1) the chimeric gene nopaline synthase/neomycin phosphotransferase as a selectable marker for transformed plant cells (Brevan et al. (1984) Nature 304:184–186), (2) the left and right borders of the T-DNA of the Ti plasmid (Brevan et al. (1984) Nucl. Acids Res. 12:8711–8720), (3) the E. coli lacZ-complementing segment (Vieria and Messing (1982) Gene 19:259–267) with unique restriction endonuclease sites for EcoRI, KpnI, BamHI, XbaI and SalI, (4) the bacterial replication origin from the Pseudomonas plasmid pVS1 (Itoh et al. (1984) Plasmid 11:206–220), and (5) the bacterial neomycin phosphotransferase gene from Tn5 (Berg et al. (1975) Proc. Natl. Acad. Sci. U.S.A. 72:3628–3632) as a selectable marker for transformed A. tumefaciens. The nopaline synthase promoter in the plant selectable marker was replaced by the 35S promoter (Odell et al. (1985) Nature, 313:810–813) by a standard restriction endonuclease digestion and ligation strategy.
Gene fusions of the Impatiens balsamina or Momordica charantia cDNAs with the cauliflower mosaic virus 35S promoter and the NOS termination sequences in vector pZS199 were introduced into Agrobacterium tumefaciens strain LBA4404. […]

[2] = soybean embryos, β-conglycinin promoter, highest amount

| Molecule | 16:0 (soybean embryos; independent transgenic line 1) [Weight %] | 18:0 (soybean embryos; independent transgenic line 1) [Weight %] | 18:1 (soybean embryos; independent transgenic line 1) [Weight %] | 18:2 (soybean embryos; independent transgenic line 1) [Weight %] | 18:3 (soybean embryos; independent transgenic line 1) [Weight %] | α-Parinaric (soybean embryos; independent transgenic line 1) [Weight %] | 16:0 (soybean embryos; independent transgenic line 2) [Weight %] | 18:0 (soybean embryos; independent transgenic line 2) [Weight %] | 18:1 (soybean embryos; independent transgenic line 2) [Weight %] | 18:2 (soybean embryos; independent transgenic line 2) [Weight %] | 18:3 (soybean embryos; independent transgenic line 2) [Weight %] | α-Parinaric (soybean embryos; independent transgenic line 2) [Weight %] | 16:0 (soybean embryos; independent transgenic line 3) [Weight %] | 18:0 (soybean embryos; independent transgenic line 3) [Weight %] | 18:1 (soybean embryos; independent transgenic line 3) [Weight %] | 18:2 (soybean embryos; independent transgenic line 3) [Weight %] | 18:3 (soybean embryos; independent transgenic line 3) [Weight %] | α-Parinaric (soybean embryos; independent transgenic line 3) [Weight %] | Eleostearic (soybean embryos; transgenic line 1) [Weight %] | Other (soybean embryos; transgenic line 1) [Weight %] | also measured |
| --- | --- | --- | --- | --- | --- | --- | --- | --- | --- | --- | --- | --- | --- | --- | --- | --- | --- | --- | --- | --- | --- |
| B1 | 13.3 | 4.2 | 20.8 | 46.3 | 9.2 | 2.2 | 13.2 | 2.5 | 12.2 | 53.8 | 12.5 | 2.0 | 13.5 | 3.1 | 11.1 | 53.0 | 17.3 | 1.0 | 3.0 | <1.0 | Eleostearic (soybean embryos; transgenic line 2): 2.8 Weight %; Other (soybean embryos; transgenic line 2): <1.0 Weight %; Eleostearic (soybean embryos; transgenic line 3): 0.6 Weight %; Other (soybean embryos; transgenic line 3): <1.0 Weight %; α-eleostearic acid of the total fatty acids (soybean embryos; [2]): ≤ 3%; α-parinaric acid of the total fatty acids (soybean embryos; [2]): ≤ 2%; eleostearic acid accumulated, relative to total fatty acid [1]: 3.4%; parinaric acid accumulated, relative to total fatty acid [1]: 1.7% |
| B2 | 6.9 | 2.4 | 43.1 | 24.1 | 3.1 | 1.0 | 7.9 | 2.1 | 36.8 | 29.4 | 5.1 | 1.0 | 8.4 | 2.3 | 41.9 | 25.1 | 6.1 | 1.8 | 17.4 | <2.0 | Eleostearic (soybean embryos; transgenic line 2): 15.9 Weight %; Other (soybean embryos; transgenic line 2): <2.0 Weight %; Eleostearic (soybean embryos; transgenic line 3): 12.4 Weight %; Other (soybean embryos; transgenic line 3): <2.0 Weight %; eleostearic acid of the total fatty acids (soybean embryos; [2]): ≤ 16.5%; α-parinaric acid of the total fatty acids (soybean embryos; [2]): ≤ 1.5%; eleostearic acid accumulated, relative to total fatty acid [1]: 1.7%; parinaric acid accumulated, relative to total fatty acid [1]: 1.1% |

From patent US7244563B2, “Genes for plant fatty acid modifying enzymes associated with conjugated double bond formation” (E. I. du Pont de Nemours and Company, priority 2002, dated 2007)
